Results: EP4725966A1 (SHANGHAI RUOTUO BIOSCIENCES CO., LTD., dated 2024)
Like-named read-outs stand apart in the source and are kept apart here.

T1: Human HER4-ECD-His (human, UniProt Q15303 26-651)
T1 construct: extracellular domain; not shown: His tag
T1 sequence (looked up): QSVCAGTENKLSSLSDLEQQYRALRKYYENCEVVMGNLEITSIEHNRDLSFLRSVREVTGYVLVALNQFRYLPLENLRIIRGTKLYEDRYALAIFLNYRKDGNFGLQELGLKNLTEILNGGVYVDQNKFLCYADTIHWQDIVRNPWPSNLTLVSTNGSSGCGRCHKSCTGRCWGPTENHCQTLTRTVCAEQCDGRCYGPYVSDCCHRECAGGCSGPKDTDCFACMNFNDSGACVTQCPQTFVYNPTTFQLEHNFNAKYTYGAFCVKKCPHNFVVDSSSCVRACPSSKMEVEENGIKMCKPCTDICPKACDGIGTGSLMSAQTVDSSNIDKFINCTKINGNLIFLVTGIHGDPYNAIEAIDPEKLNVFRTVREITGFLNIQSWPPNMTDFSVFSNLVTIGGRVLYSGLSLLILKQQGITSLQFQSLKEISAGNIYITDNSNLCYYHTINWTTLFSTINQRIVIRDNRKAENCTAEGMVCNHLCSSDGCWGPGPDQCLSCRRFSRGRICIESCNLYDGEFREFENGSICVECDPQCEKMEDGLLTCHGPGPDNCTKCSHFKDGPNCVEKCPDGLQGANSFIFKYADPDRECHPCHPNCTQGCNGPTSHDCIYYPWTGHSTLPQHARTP


Legend:
[1] = target: T2, human HER3-ECD-His (human, UniProt P21860 20-643); test: Octet (BLI)
T2 construct: extracellular domain; Fusion protein of the extracellular domain of human HER3 and a His tag; also called hHER3-ECD-His; human HER3 extracellular domain protein; not shown: His tag

[2] = target: T3, cynomolgus HER3-ECD-His (cynomolgus monkey, UniProt G7PIG5 20-643); test: Octet (BLI)
T3 construct: extracellular domain; Bought protein (Sino Biological); also called Cyno HER3-ECD-His; Cyno HER3; not shown: His tag
T3 sequence (G7PIG5 entry or part of it): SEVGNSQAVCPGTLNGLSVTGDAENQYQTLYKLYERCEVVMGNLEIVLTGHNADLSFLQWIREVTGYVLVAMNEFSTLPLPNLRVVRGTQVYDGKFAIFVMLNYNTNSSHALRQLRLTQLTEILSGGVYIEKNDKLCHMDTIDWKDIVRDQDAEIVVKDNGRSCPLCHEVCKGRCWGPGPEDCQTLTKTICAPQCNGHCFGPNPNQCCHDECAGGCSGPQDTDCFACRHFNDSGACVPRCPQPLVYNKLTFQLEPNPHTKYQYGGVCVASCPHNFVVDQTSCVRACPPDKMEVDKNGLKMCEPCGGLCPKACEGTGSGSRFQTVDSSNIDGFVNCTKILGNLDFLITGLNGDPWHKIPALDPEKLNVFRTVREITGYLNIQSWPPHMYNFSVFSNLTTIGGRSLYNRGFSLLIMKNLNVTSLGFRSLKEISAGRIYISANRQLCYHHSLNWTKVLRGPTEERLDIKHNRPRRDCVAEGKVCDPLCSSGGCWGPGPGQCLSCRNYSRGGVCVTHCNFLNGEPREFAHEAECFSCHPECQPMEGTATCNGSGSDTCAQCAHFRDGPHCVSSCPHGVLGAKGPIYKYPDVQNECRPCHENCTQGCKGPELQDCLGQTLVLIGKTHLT

[3] = target: T2, human HER3-ECD-His; test: Octet (BLI); remark: listed apart in the source
[4] = target: T3, cynomolgus HER3-ECD-His; test: Octet (BLI); remark: listed apart in the source
[5] = target: T4, cynomolgus HER3 on CHO cells (cynomolgus monkey, UniProt G7PIG5 20-1342); test: FACS on CHO cells overexpressing cynomolgus HER3
T4 construct: whole, on cells; also called CHO cells overexpressing cynomolgus HER3; CHO cells overexpressing cynomolgus monkey HER3
T4 sequence (G7PIG5 entry or part of it): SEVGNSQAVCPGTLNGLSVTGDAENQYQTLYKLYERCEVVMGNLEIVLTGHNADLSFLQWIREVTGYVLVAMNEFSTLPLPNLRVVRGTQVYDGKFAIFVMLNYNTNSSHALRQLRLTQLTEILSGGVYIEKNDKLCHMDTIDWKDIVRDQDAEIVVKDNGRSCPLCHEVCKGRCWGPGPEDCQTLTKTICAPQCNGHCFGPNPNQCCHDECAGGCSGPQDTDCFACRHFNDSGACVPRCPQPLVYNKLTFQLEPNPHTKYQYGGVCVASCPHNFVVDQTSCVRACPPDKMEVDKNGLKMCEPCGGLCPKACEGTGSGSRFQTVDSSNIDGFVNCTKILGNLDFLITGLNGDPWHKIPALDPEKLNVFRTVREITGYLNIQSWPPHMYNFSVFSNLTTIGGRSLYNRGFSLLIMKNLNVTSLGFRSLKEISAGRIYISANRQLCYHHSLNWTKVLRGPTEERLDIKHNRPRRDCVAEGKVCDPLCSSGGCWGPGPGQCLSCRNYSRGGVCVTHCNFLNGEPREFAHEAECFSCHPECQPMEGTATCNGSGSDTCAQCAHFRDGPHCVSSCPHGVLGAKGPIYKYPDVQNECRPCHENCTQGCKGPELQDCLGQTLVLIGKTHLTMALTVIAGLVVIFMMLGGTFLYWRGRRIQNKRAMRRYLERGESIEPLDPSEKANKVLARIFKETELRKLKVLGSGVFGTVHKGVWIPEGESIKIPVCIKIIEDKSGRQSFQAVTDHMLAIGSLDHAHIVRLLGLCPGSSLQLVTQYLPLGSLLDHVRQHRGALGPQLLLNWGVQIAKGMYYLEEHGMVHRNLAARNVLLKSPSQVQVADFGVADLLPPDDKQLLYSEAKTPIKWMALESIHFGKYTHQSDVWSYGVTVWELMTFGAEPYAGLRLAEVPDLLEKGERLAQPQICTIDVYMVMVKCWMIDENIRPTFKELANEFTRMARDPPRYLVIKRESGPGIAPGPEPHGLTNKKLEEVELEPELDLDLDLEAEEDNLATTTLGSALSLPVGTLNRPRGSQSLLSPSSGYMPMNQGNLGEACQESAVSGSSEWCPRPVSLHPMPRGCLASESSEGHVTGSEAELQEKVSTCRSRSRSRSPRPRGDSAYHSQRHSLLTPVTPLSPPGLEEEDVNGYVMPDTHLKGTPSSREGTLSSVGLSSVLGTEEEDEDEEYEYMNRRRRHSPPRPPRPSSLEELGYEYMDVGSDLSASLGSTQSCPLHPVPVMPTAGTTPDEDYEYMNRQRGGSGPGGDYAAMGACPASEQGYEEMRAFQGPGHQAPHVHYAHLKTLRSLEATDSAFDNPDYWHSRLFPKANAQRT

[6] = target: T2, human HER3-ECD-His; test: Octet (BLI); remark: listed apart in the source
[7] = target: T3, cynomolgus HER3-ECD-His; test: Octet (BLI); remark: listed apart in the source
[8] = target: T5, Human EGFR-ECD-His (human, UniProt P00533 25-645); test: ELISA on coated Human EGFR-ECD-His, antibody 25 nM to 0.011 nM
T5 construct: extracellular domain; not shown: His tag

[9] = target: T6, Human HER2-ECD-His (human, UniProt P04626 23-652); test: ELISA on coated Human HER2-ECD-His, antibody 25 nM to 0.011 nM
T6 construct: extracellular domain; not shown: His tag

[10] = target: T1, Human HER4-ECD-His; test: ELISA on coated Human HER4-ECD-His, antibody 25 nM to 0.011 nM
[11] = target: T7, human HER3 on cells (human, UniProt P21860 20-1342); test: fluorescence imaging of HER3-overexpressing A375 cells, 100 nM, 0 hour
T7 construct: whole, on cells; also called Human HER3-CHO; CHO cells overexpressing human HER3

Binder | Kd [1] [nM] | koff [1] [s⁻¹] | kon [1] [M⁻¹ s⁻¹] | Kd [2] [nM] | koff [2] [s⁻¹] | kon [2] [M⁻¹ s⁻¹] | Kd [3] [nM] | koff [3] [s⁻¹] | kon [3] [M⁻¹ s⁻¹] | Kd [4] [nM] | koff [4] [s⁻¹] | kon [4] [M⁻¹ s⁻¹] | EC50 fold against patritumab [5] [fold] | KD fold lower than patritumab [6] [fold] | KD fold lower than patritumab [7] [fold] | binding result [8] | binding result [9] | binding result [10] | binding result [11]
cHE1-G1W (antibody, human IgG1, V domains shown, also called chimeric HE1 antibody; not shown: human IgG1 heavy chain constant region, GenBank AXN93653.1; human kappa light chain constant region, GenBank AWK57456.1) VH: EVKLQESGPGLVKPSQSLSLTCSVTGYSITSGYYWNWIRQFPGNKLEWMGYISYDGSNNYNPSLKNRISITRDTSKNQFFLNLNSVTTEDTATYYCARVDWDGDAMDYWGQGTSVTVSS VL: DIVLTQSPASLAVSLGQRATISCRASESVDNYGIRLMHWYQQKSGQPPKLLIHRASNLESGIPARFSGSGSRTDFTLTINPVETDDVATYYCQQSNKDPFTFGSGTKLEIKR | 4.88 | 0.00356 | 728000 | 4.01 | 0.0017 | 423000 |  |  |  |  |  |  |  |  |  |  |  |  | 
cHE2-G1W (antibody, human IgG1, V domains shown, also called chimeric HE2 antibody; not shown: human IgG1 heavy chain constant region, GenBank AXN93653.1; human kappa light chain constant region, GenBank AWK57456.1) VH: EVKLQESGPGLVKPSQSLSLTCSVTGYSITSGYYWNWIRQFPGNKLEWMGYISYDGSNNYNPSLKNRISITRDTSKNQFFLKLNSVTTEDTATYYCARMDWDGDAMDYWGQGTSVTVSS VL: DIVLTQSPASLAVSLGQRATISCRASESVDNYGISLMHWYQQKPGQPPKLLIYRASNLESGIPARFSGSGSRTDFTLTINPVETDDVATYYCQQSNKDPPTFGAGTKLELKR | 3.57 | 0.00308 | 861000 | 3.25 | 0.00165 | 507000 |  |  |  |  |  |  |  |  |  |  |  |  | 
cHE6-G1W (antibody, human IgG1, V domains shown, also called chimeric HE6 antibody; not shown: human IgG1 heavy chain constant region, GenBank AXN93653.1; human kappa light chain constant region, GenBank AWK57456.1) VH: EVQLQQSGPDLVKPGTSVKMSCKASGYTFTDYYMHWVRQSHGKSLEWIGYINPNNGDAIYNQKFKGKATLTVNKSSTTAYMALRSLTSEDSAVYFCATYDYGGDFYFDVWGTGTTVTVSS VL: DIELTQSPALMSASPGEKVTMTCSASSSVSYMYWYQQKPRSSPKPWIYLTSNLASGVPARFSGSGSGTSYSLTISSMEAEDAATYYCQQWSRNPLTFGAGTKLELKR | 0.00114 | 5.11e-07 | 450000 | 1.25 | 0.000706 | 565000 |  |  |  |  |  |  |  |  |  |  |  |  | 
hHE4-G1W-DXd (antibody, V domains shown, maleimide-GGFG-DXd conjugated to cysteines of reduced interchain disulfide bonds; antibody-to-DXd ratio 1:8, not shown: human IgG1 heavy chain constant region; human light chain constant region) VH: QVQLVESGGGLVKPGGSLRLSCAASGFTFSSYVMSWVRQAPGKGLEWVATISDGDSSTYYADSVKGRFTISRDNAKNSLYLQMNSLRAEDTAVYYCARDKGHGYDEGAFVYWGQGTLVTVSS VL: DIQMTQSPSSLSASVGDRVTITCRASENIYSYLAWYQQKPGKAPKLLIYNAKTLAEGVPSRFSGSGSGTDFTLTISSLQPEDFATYYCQNHYGTPYTFGQGTKLEIKR |  |  |  |  |  |  |  |  |  |  |  |  |  |  |  |  |  |  | binds

Now from value to binder:

Kd [1] [nM] | koff [1] [s⁻¹] | kon [1] [M⁻¹ s⁻¹] | Kd [2] [nM] | koff [2] [s⁻¹] | kon [2] [M⁻¹ s⁻¹] | Kd [3] [nM] | koff [3] [s⁻¹] | kon [3] [M⁻¹ s⁻¹] | Kd [4] [nM] | koff [4] [s⁻¹] | kon [4] [M⁻¹ s⁻¹] | EC50 fold against patritumab [5] [fold] | KD fold lower than patritumab [6] [fold] | KD fold lower than patritumab [7] [fold] | binding result [8] | binding result [9] | binding result [10] | binding result [11] | Binder
0.869 | 0.000224 | 258000 | 2.34 | 0.000306 | 131000 | 1.33 | 0.000296 | 222000 | 1.92 | 0.000371 | 194000 |  |  |  |  |  |  |  | patritumab (antibody, V domains shown) VH: QVQLQQWGAGLLKPSETLSLTCAVYGGSFSGYYWSWIRQPPGKGLEWIGEINHSGSTNYNPSLKSRVTISVETSKNQFSLKLSSVTAADTAVYYCARDKWTWYFDLWGRGTLVTVSS VL: not shown
3.56 | 0.00253 | 710000 | 3.58 | 0.00154 | 429000 |  |  |  |  |  |  |  |  |  |  |  |  |  | cHE5-G1W (antibody, human IgG1, V domains shown, also called chimeric HE5 antibody; not shown: human IgG1 heavy chain constant region, GenBank AXN93653.1; human kappa light chain constant region, GenBank AWK57456.1) VH: EVQLQESGPGLVKPSQSLSLTCSVTGYSITSGYYWNWIRQFPGNKLEWMGYISYDGSNNYNPSLKNRISITRDTSKNQFFLKLNSVTTEDTATYYCASYDYDGDWFAYWGQGTLVTVSA VL: DIVLTQSPASLAVSLGQRATISCRASESVDHYGSSFMHWYQQKPGQPPKLLIYRASNPESGIPARFSGSGSRTDFTLTINPVETDDVATYYCQQSNKDPPTFGGGTKLEIKR
0.409 | 0.000234 | 573000 | 0.31 | 0.000116 | 374000 | 0.233 | 0.000112 | 482000 | 0.227 | 9.63e-05 | 425000 | 2 |  |  |  |  |  |  | cHE4-G1W (antibody, human IgG1, V domains shown, also called chimeric HE4 antibody; cHE4-G1W4; not shown: human IgG1 heavy chain constant region, GenBank AXN93653.1; human kappa light chain constant region, GenBank AWK57456.1) VH: EVQLVESGGGLVKPGGSLKLSCAASGFTFSSYVMSWVRQTPEKRLEWVATISDGDSSTYYPDNVKGRFTISRDNAKNNLFLQMSHLKSEDTAMYFCARDKGHGYDEGAFVYWGQGTLVTVSA VL: DIQMTQSPASLSASVEETVTITCRASENIYSYLAWYQQKQGKSPQLLVYNAKTLAEGVPSRFSGSGSGTEFSLKINSLQPEDFGSYYCQNHYGTPYTFGGGTKLEIKQ
0.00131 | 5.57e-07 | 425000 | 1.36 | 0.000912 | 672000 |  |  |  |  |  |  |  |  |  |  |  |  |  | cHE7-G1W (antibody, human IgG1, V domains shown, also called chimeric HE7 antibody; not shown: human IgG1 heavy chain constant region, GenBank AXN93653.1; human kappa light chain constant region, GenBank AWK57456.1) VH: EVQLQQSGPDLVKPGTSVKMSCKASGYTFTDYYMHWVRQSHGKSLEWIGYINPNNGDAIYNQKFKGKATLTVDKSSTTAYMALRSLTSEDSAVYFCATYDYGGDFYFDVWGTGTTVTVSS VL: DIELTQSPALMSASPGEKVTMTCSASSSVSYMYWYQQKPRSSPKPWIYLTSNLASGVPARFSGSGSGTSYSLTISSMEAEDAATYYCQQWSRNPLTFGAGTKLELKR
 |  |  |  |  |  | 0.199 | 9.84e-05 | 495000 | 0.208 | 9.11e-05 | 439000 |  | ~10 | ~10 | no binding (tested: 25 nM) | no binding (tested: 25 nM) | no binding (tested: 25 nM) |  | hHE4-G1W (antibody, human IgG1, V domains shown, Humanized from cHE4-G1W; also called humanized HE4 antibody; not shown: human IgG1 heavy chain constant region; human light chain constant region) VH: QVQLVESGGGLVKPGGSLRLSCAASGFTFSSYVMSWVRQAPGKGLEWVATISDGDSSTYYADSVKGRFTISRDNAKNSLYLQMNSLRAEDTAVYYCARDKGHGYDEGAFVYWGQGTLVTVSS VL: DIQMTQSPSSLSASVGDRVTITCRASENIYSYLAWYQQKPGKAPKLLIYNAKTLAEGVPSRFSGSGSGTDFTLTISSLQPEDFATYYCQNHYGTPYTFGQGTKLEIKR
